Columns and labels:
[1] = target: T1, mouse odorant receptor OREG (Mus musculus, UniProt Q920P2); test: CRE-luciferase reporter gene assay, OREG; assay type: cell-based; settings: 293T cells; compared to OR alone or control pCI
T1 construct: expressed in transfected cells; host or cells: 293T cells (with or without co-transfected REEP1/RTP1/RTP2) and Hana3A cells (293T stably expressing mouse REEP1, RTP1, RTP2, Galpha-olf)
T1 sequence (Q920P2 1-313): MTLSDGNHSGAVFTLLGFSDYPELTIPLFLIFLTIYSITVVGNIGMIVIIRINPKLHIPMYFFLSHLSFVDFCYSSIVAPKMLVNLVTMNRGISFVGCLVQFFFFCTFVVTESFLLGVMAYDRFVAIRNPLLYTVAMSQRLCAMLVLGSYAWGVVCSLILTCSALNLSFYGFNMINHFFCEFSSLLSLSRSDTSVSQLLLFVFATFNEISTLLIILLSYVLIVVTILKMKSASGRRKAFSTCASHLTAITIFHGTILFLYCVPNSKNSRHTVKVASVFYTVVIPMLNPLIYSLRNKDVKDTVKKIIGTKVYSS
Source text: Poor odorant evoked signaling activity in heterologous cell culture systems expressing ORs has been attributed to the poor cell surface expression of ORs. The identification of REEP and/or RTP allowed a direct assessment of this issue. A luciferase reporter gene assay was employed in which a cAMP responsive element (CRE) mediated luciferase gene expression (see FIG. 8A). Because OR activation leads to an increase in cAMP, activation of the mouse odorant receptor OREG by its ligand eugenol was measured in the presence and absence of REEP and/or RTP (see, e.g., Kajiya, K., et al. (2001) J Neurosci 21, 6018-6025; Touhara, K., et al., (1999) Proc Natl Acad Sci USA 96, 4040-4045; each herein incorporated by reference in their entireties). As reported previously, eugenol increased levels of OREG dependent luciferase activity (see, e.g., Katada, S., et al. (2003) Biochem Biophys Res Commun 305, 964-969; herein incorporated by reference in its entirety).
To facilitate analysis of odorant-OR interactions, 293T cell lines were established which stably express REEP1, RTP1, RTP2 and Gαolf, the G protein alpha subunit that couples to OR (see, e.g., Belluscio, L., et al. (1998) Neuron 20, 69-81; Jones, D. T., and Reed, R. R. (1989). Science 244, 790-795; each herein incorporated by reference in their entireties). To establish such cells, linearized expression vectors containing mouse REEP1, RTP1, RTP2 and Gαolf ORFs were transfected into 293T cells with PGK-Pac (puromycin resistant gene) (see, e.g., Watanabe, S., et al. (1995) Biochem Biophys Res Commun 213, 130-137; herein incorporated by reference in its entirety). […] Enhanced cell-surface expression was observed when OREG or other ORs were transfected in Hana3A cells and immunostained (see FIG. 10). […] Expression of Gαolf alone in 293T cells had little or no effect on OR activation using this assay.
Dual-Glo system (Promega) for luciferase assay was used. CRE-Luciferase (Stratagene) was used to measure the receptor activities. Renilla luciferase driven by constitutively active SV40 promoter (pRL-SV40: Promega) was used as an internal control. Cells were plated on poly-D-lysine coated 96 well plates (BIOCOAT, Beckton Dickinson). After 8 hours (for experiments shown in FIGS. 8B and 8C) or 12 hours (for experiments shown in FIG. 8D and FIG. 11) after transfection, the medium was replaced with CD293 chemically defined medium (Invitrogen) and the plates were incubated for one hour at 37 degrees C. The medium was replaced with 50 ul of odorant solutions dissolved in CD293 and incubated for 10 hours (for experiments shown in FIGS. 8B and 8C) or 4 hours (for experiments shown in FIG. 8D and FIG. 11) at 37 degrees C. The manufacture's protocol for measuring luciferase and Renilla luciferase activities was followed. Luminescence was measured using Wallac Victor 1420 (Perkin-Elmer). Normalized luciferase activity was calculated as [Luc (N)-Luc (0)]/RL (N), where Luc (N)=Luminescent count of a certain well, Luc (0)=Luminescent count without odorant for each OR, and RL (N)=Luminescent count of Renilla Luciferase of each well. For cAMP assays, cells were plated onto 24-well plate. […]. Prism software (Graphpad) was used for data analysis.

[2] = system: MOR203-1; test: Living-cell staining of cell-surface MOR203-1; assay type: cell-based, mouse; settings: accessory protein co-transfected in 293T cells
Source text: After hypothesizing that mammalian ORs require accessory protein(s) for functional cell surface expression, a search was instituted for detecting such molecule(s). Long-SAGE (serial analysis of gene expression) libraries (see, e.g., Saha, S., et al., (2002) Nat Biotechnol 20, 508-512; herein incorporated by reference in its entirety) were constructed from single olfactory neurons as well as neurons from the vomeronasal organ and genes were collected that are expressed by these neurons. To identify candidate genes expressed by the olfactory neurons Digital Differential Display (see, e.g., http://www, followed by, .ncbi.nlm.nih.gov/UniGene/info_ddd.shtml) was also used. Candidate genes were investigated for ORFs that encode membrane associated proteins. Genes were selected with similarities to known chaperones and cloned the cDNAs from olfactory epithelium cDNAs. The mRNA expression of each gene was verified by in situ hybridization. After isolating and subcloning into mammalian expression vectors, each cDNA together with a mouse OR (MOR203-1) tagged with a 20 N-terminal amino acids of rhodopsin (Rho-tag), was transfected into 293T cells. We measured whether these clones had any effect on the cell-surface expression of ORs by staining living cells using antibodies against the Rho-tag (see, e.g., Laird, D. W., and Molday, R. S. (1988) Invest Opthalmol Vis Sci 29, 419-428; herein incorporated by reference in its entirety). When MOR203-1 was transfected alone, antibody staining detected only faint cell-surface expression in less than 1% of the cells. A schematic diagram outlining the screening procedure utilized with the present invention is provided at FIG. 1.
293T cells were maintained in minimal essential medium containing 10% fetal bovine serum (M10). Lipofectamine 2000 (Invitrogen) was used for transfection. In live-cell staining, 16 hours after transfection, cells were incubated in M10 containing anti rhodopsin antibody, 4D2 (see, e.g., Laird, D. W., and Molday, R. S. (1988) Invest Opthalmol V is Sci 29, 419-428; herein incorporated by reference in its entirety) and 15 mM NaN3 at 4 degrees C. for 1 hour. After washing, cells were incubated with Cy3-conjugated anti mouse IgG (Jackson Immunologicals), washed and mounted. For FACS analysis, 4D2 and PE-conjugated anti mouse IgG (Jackson Immunologicals) were used to monitor the Rho tagged receptor expression. Anti HA rabbit antibodies (Sigma) and Alexa 488 conjugated anti rabbit IgG (Molecular Probes) was used to stain the HA-β2 adrenergic receptor. To establish the Hana3a cells, 1 ug/ml of puromycin was used for selection. 96 colonies were picked and assayed using luciferase assay using OREG.

[3] = system: MOR203-1; test: Co-immunoprecipitation with HA-tagged MOR203-1; assay type: binding, mouse; settings: Flag-tagged protein, 293T cells, HA-MOR203-1 precipitated
Description: Given the ability of REEP and/or RTP to promote cell-surface expression of ORs, it was hypothesized that they may also interact with OR proteins. This was assessed using co-immunoprecipitation assays. HA-tagged MOR203-1 and Flag-tagged REEP1, RTP1 or ICAP-1, a negative control (see, e.g., Zawistowski, J. S., et al. (2002) Hum Mol Genet. 11, 389-396; herein incorporated by reference in its entirety) were transfected in 293T cells. After the cell extracts were precipitated with anti-Flag antibodies, proteins were eluted in SDS-sample buffer at room temperature whereupon western blotting analysis was performed to detect the OR proteins. OR proteins were detected as high molecular weight bands after precipitation of REEP1 or RTP1 (see FIG. 7B, lanes 1 and 2). […] The present invention is not limited to a particular mechanism. Indeed, an understanding of the mechanism is not necessary to practice the present invention.
293T cells in 100 mm dishes were transfected with ORs, REEP1, and/or RTP1 cDNAs. 16 hours after transfection, cells were lysed in lysis buffer (50 mM Tris (7.4), 150 mM NaCl, 1% NP-40, 0.5 mM PMSF, 2 mM Benzamidene, 0.5 ug/ml Leupeptin, 1.4 ug/ml pepstatin A, 2.4 ug/ml chymostatin, 15 ug/ml aprotinin, 1 mM sodium orthovanadate). The lysis were incubated with anti-Flag M2 affinity gel (Sigma) or anti-HA affinity matrix (Roche) for 2 hours at 4 degrees C. and washed with lysis buffer. Subsequently, the bound proteins were eluted by incubation with SDS sample buffer at room temperature for 2 hours. SDS-PAGE and western blotting were performed according to Mini-Protean 3 Cell (Bio-Rad) instruction manual. ECL (Amersham) was used for detecting proteins on membranes.

B1: RTP1: Receptor Transporting Protein 1; murine SEQ ID NO: 33, human SEQ ID NO: 37 (protein, listed as Mus musculus)
chain: MRIFRPWRLRCPALHLPSFPTFSIKCSLPPLPTDEDMCKSVTTGEWKKVFYEKMEEVKPADSWDFIIDPNLKHNVLAPGWKQYLELHASGRFHCSWCWHTWQSPHVVILFHMYLDKAQRAGSVRMRVFKQLCYECGTARLDESSMLEENIESLVDNLITSLREQCYGERGGHYRIHVASRQDNRRHRGEFCEACQEGIVHWKPSEKLLEEEATTYTFSRAPSPTKPQAETGSGCNFCSIPWCLFWATVLMLIIYLQFSFRTSV
OREG activity by luciferase, accessory protein co-expressed [1]: enhanced luciferase activities compared to OR alone | cell surface expression of MOR203-1 [2]: enhanced both the number and staining intensity of cell surface expression | co-precipitation with HA-MOR203-1 [3]: co-precipitated

B2: REEP1: Receptor Expression Enhancing Protein 1; murine SEQ ID NO: 21, human SEQ ID NO: 27 (protein, listed as Mus musculus)
chain: MVSWIISRLVVLIFGTLYPAYYSYKAVKSKDIKEYVKWMMYWIIFALFTTAETFTDIFLCWFPFYYELKIAFVAWLLSPYTKGSSLLYRKFVHPTLSSKEKEIDDCLVQAKDRSYDALVHFGKRGLNVAATAAVMAASKGQGALSERLRSFSMQDLTTIRGDGAPAPSGPPPPGTGRSSGKHSQPKMSRSASESAGSSGTA
OREG activity by luciferase, accessory protein co-expressed [1]: enhanced luciferase activities compared to OR alone | cell surface expression of MOR203-1 [2]: enhanced both the number and staining intensity of cell surface expression | co-precipitation with HA-MOR203-1 [3]: co-precipitated

From US7838288B2, “Modulators of odorant receptors” (Duke University, priority 2004, dated 2010)
